The Kd is the concentration at which binding is half-saturated. Read a low Kd as tighter binding.

Where no end group is shown, it is not given here. [ ]: non-standard residue; d: D form. fluorescent label = not defined here; Dap = NC[C@H](N)C(=O)O; Cm = not defined here

These results are taken from patent US12116698.

Test [1] concerns the target T1, sortase A (SrtA) (S. aureus), Q2FV99.
T1 chain: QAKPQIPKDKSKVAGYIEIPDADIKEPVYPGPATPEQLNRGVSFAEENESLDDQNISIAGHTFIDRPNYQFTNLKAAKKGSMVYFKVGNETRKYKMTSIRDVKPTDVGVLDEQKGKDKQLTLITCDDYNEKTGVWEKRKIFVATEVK
Put plainly: mean fluorescence intensity of SrtA-coated beads against peptide concentration, curve fit.

For test [2] the target is unchanged. Description: fluorescence polarization (anisotropy), SrtA titrated into peptide solution.
Test [3] concerns the target Streptavidin, P22629. Put plainly: fluorescence intensity of streptavidin-coated beads at varied peptide concentrations, hyperbola fit.

Sequence of Streptavidin, P22629 (P22629 37-163 limits assumed): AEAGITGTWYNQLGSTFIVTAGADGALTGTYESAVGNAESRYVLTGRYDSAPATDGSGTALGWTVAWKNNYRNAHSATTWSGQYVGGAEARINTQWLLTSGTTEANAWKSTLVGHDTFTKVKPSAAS

B1: W1 (peptide)
peptide: ACHPVSGQKCGGG[Dap](fluorescent label)
modifications: not fully specified (residues 2, 10); cysteine pairing not given here; reading uncertain; also: Cm code not defined, fluorescent label not named
In test [1], B1 returned a Kd of 14 µM.

B2: W2 (peptide)
peptide: ACLNSSQPSCGGG[Dap](fluorescent label)
modifications: not fully specified (residues 2, 10); cysteine pairing not given here; reading uncertain; also: Cm code not defined, fluorescent label not named
For the molecule B2, the dissociation constant (Kd) was 12 µM in test [2] and 14 µM in test [1].
The molecule A[Cm]DGRPDRA[Cm]GGG[Dap](fluorescent label) (not fully specified; reading uncertain; also: fluorescent label not named) [SA2] had a Kd in test [3] of 9 µM.
A[Cm]TPRSANY[Cm]GGG[Dap](fluorescent label) (not fully specified; reading uncertain; also: fluorescent label not named) [SA1] showed a dissociation constant (Kd) in test [3] of 6 µM.
